We go through 5 molecules from patent publication US20190367620A1 (Merck KGaA, published 2019).

One assay concerns the target FGFR1 on NCI-H520 cells (human, UniProt P11362 22-822). Kind of assay: cell-based or functional assay.
Assay [1] has as its target T1, human FGFR1b-IIIc extracellular domain with a HIS tag (human, UniProt P11362 22-376).
T1 construct: also called huFGFR1b-IIIc; hFGFR1b-IIIc
T1 sequence: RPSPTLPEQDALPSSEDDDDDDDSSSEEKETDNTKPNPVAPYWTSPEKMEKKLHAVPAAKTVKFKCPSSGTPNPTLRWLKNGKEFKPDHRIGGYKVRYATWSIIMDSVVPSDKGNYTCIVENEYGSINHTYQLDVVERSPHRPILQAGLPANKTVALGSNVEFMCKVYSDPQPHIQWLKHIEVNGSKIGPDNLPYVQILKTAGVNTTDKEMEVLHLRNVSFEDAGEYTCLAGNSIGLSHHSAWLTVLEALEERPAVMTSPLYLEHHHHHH
Kind of assay: ELISA, EC50 from OD450 curves, monovalent SEEDbody format. On the procedure:
The binding selectivity of the antibodies were tested by ELISA against the different FGFR family members: FGFR1, FGFR2, FGFR3 and FGFR4. Briefly plates were coated overnight with the different His6-tagged FGFR proteins, after blocking with 1% Bovine Serum albumin, 1 or 0.1 μg/ml of anti-FGFR1 antibodies were incubated for 1 h at room temperature. After washing, the bound antibodies were incubated for 1 h at room temperature with a peroxidase affiniPure F(ab′)2 Fragment goat anti-human Fc (Jackson ImmunoResearch Laboratories #109-036-098) and detection was performed using the TMB HRP Substrate solution (BioFx Lab # TMBW-1000-01).
The antibody #A08 both as an IgG1 (bivalent) and as a SEEDbody (monovalent), was affinity matured using the yeast display technology described in (Rhiel et al. 2014) and performing light chain shuffling from immunized OmniRats and naïve human library followed by CDR-H3 parsimonious mutagenesis. Following several sorting rounds, yeast clones were picked, unique clones were reformatted as described in Examples 1.6 and 3.1. The binding affinities of the anti-FGFR1 molecules against human FGFR1b-IIIb) and human FGFR1b-IIIc) were measured by ELISA using a similar protocol as described in Example 1.9. The OD450 was plotted against the antibody concentration and GraphPad Prism software was used to calculate EC₅₀ values (see FIG. 10). […] The best results were obtained with mAb #A02 and #C01 showing an EC50 improvement in both IgG1 and SEEDbody formats.
In general terms: An ELISA detects its analyte on a solid surface through an enzyme-linked reagent.

Assay [2] concerns the target T2, human FGFR1b-IIIb extracellular domain with a HIS tag (human).
T2 construct: also called huFGFR1b-IIIb; hFGFR1b-IIIb
T2 chain: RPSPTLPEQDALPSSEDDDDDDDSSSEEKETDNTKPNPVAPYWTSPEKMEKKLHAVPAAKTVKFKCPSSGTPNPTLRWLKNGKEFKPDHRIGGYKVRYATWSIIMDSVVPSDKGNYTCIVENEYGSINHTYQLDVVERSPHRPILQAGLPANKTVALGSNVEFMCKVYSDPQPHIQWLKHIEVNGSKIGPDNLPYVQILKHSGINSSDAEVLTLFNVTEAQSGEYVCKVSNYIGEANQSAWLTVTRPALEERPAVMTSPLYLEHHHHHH
Kind of assay: SPR (BIAcore), SEEDbody format; target IIIb by paragraph 74 and paragraph 125, the table's title says IIIc. On the procedure: Binding affinities of anti-FGFR1 antibodies to FGFR1 were measured by Surface Plasmon Resonance (SPR) using a GE Healthcare BIAcore 4000 instrument as follows. Goat anti-human Fc antibody (Jackson ImmunoResearch Laboratories #109-005-098) was first immobilized on BIAcore carboxymethylated dextran CM5 chip using direct coupling to free amino groups following the procedure described by the manufacturer. Antibodies were then captured on the CM5 biosensor chip to achieve approximately 200 response units (RU). Binding measurements were performed using the running HBS-EP+ buffer. A 2-fold dilution series of His-tagged FGFR1 proteins were injected at a flow rate of 30 μl/min at 25° C. Association rates (kₒₙ, per mol/s) and dissociation rates (koff, per s) were calculated using a simple 1:1 Langmuir binding model (Biacore 4000 Evaluation Software). The equilibrium dissociation constant (KD, mol) was calculated as the ratio of koff/kₒₙ.
The affinities to human FGFR1b-IIIb for the affinity matured clones reformatted as IgG and monovalent SEEDbodies were measured by BIAcore (using a protocol similar to the one described in Example 1.8) and compared to those of mAb #08 (Table 5).
Background: In SPR one partner is held on a chip, and binding of the other changes the refractive index at the surface.

Chain of FGFR1 on NCI-H520 cells (P11362 22-822): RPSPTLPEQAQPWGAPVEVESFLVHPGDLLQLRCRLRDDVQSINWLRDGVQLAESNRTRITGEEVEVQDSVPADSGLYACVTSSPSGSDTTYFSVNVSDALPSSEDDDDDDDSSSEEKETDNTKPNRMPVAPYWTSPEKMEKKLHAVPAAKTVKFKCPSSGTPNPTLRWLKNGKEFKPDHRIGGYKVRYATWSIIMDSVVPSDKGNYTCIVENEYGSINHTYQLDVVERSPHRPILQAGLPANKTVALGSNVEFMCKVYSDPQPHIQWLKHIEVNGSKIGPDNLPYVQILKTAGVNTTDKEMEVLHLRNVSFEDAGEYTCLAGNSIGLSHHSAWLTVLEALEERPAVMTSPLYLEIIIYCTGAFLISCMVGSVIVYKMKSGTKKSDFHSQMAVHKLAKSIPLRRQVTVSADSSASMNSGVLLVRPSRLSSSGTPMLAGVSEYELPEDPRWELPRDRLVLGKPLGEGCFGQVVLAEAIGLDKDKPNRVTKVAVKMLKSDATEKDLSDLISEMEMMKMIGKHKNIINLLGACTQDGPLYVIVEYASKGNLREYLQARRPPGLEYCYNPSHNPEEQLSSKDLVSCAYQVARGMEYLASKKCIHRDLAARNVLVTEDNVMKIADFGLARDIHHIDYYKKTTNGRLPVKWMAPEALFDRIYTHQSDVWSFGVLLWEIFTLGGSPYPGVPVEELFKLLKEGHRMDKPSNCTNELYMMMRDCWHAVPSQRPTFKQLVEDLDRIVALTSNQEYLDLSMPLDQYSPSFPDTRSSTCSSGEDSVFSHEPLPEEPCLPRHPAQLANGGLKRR

B1: A05 SEEDbody (monovalent) (antibody, V domains shown)
VH: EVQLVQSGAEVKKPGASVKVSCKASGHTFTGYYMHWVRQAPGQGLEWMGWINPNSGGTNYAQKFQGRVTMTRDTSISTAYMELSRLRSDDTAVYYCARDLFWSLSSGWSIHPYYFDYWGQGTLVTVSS
VL: QSALTQPASVSGSPGQSITISCTGTSSDVGSYNLVSWYQQHPGKAPKLMIYGGSKRPSGVPDRFSGSKSGNTASLTISGLQAEDEADYYCSSYTYSGDVFGTGTKVTVL
In the case of B1, in the assay with FGFR1 on NCI-H520 cells, the “IC50, pFGFR1 inhibition in NCI-H520 cells, FGF1, SEEDbody” value was more than 1e-06 M; the “IC50, pFGFR1 inhibition in NCI-H520 cells, FGF2, SEEDbody” value amounted to 4e-07 M; the “IC50, pFGFR1 inhibition in NCI-H520 cells, non-stimulated, SEEDbody” value is more than 1e-06 M.

B2: #A02 SEEDbody (monovalent) (antibody)
heavy: QVQLQESGPGLVKPSGTLSLTCAVSGGSISSNNWWSWVRQPPGKGLEWIGEIYHSGSTSYNPSLKSRVTISVDKSKNQFSLKLSSVTAADTAVYYCARATDWFDLWGQGTLVTVSSASTKGPSVFPLAPSSKSTSGGTAALGCLVKDYFPEPVTVSWNSGALTSGVHTFPAVLQSSGLYSLSSVVTVPSSSLGTQTYICNVNHKPSNTKVDKRVEPKSCDKTHTCPPCPAPELLGGPSVFLFPPKPKDTLMISRTPEVTCVVVDVSHEDPEVKFNWYVDGVEVHNAKTKPREEQYNSTYRVVSVLTVLHQDWLNGKEYKCKVSNKALPAPIEKTISKAKGQPFRPEVHLLPPSREEMTKNQVSLTCLARGFYPKDIAVEWESNGQPENNYKTTPSRQEPSQGTTTFAVTSKLTVDKSRWQQGNVFSCSVMHEALHNHYTQKTISLSPG
chain: EPKSSDKTHTCPPCPAPELLGGPSVFLFPPKPKDTLMISRTPEVTCVVVDVSHEDPEVKFNWYVDGVEVHNAKTKPREEQYNSTYRVVSVLTVLHQDWLNGKEYKCKVSNKALPAPIEKTISKAKGQPREPQVYTLPPPSEELALNELVTLTCLVKGFYPSDIAVEWLQGSQELPREKYLTWAPVLDSDGSFFLYSILRVAAEDWKKGDTFSCSVMHEALHNHYTQKSLDRSPG
light: SYVLTQPPSVSVAPGQTARITCGGNNIGSESVHWYQQKPGQAPVLVVYDDSDRPSGIPERFSGSNSGNTATLTISRVEAGDEADYYCQVWDSTSDHRVFGGGTKLTVLGQPKAAPSVTLFPPSSEELQANKATLVCLISDFYPGAVTVAWKADSSPVKAGVETTTPSKQSNNKYAASSYLSLTPEQWKSHKSYSCQVTHEGSTVEKTVAPTECS
notes: also called #A02-SEED(AG)
As for B2, the binding result in assay [1] is reported as “binds”. In addition, binding in assay [2] was characterised by a dissociation constant (Kd) of 60 pM.

B3: #B10 SEEDbody (monovalent) (antibody)
heavy: QVQLQESGPGLVKPSGTLSLTCAVSGGSISSNNWWSWVRQPPGKGLEWIGEIYHSGSTSYNPSLKSRVTISVDKSKNQFSLKLSSVTAADTAVYYCARATDWYDPWGQGTLVTVSSASTKGPSVFPLAPSSKSTSGGTAALGCLVKDYFPEPVTVSWNSGALTSGVHTFPAVLQSSGLYSLSSVVTVPSSSLGTQTYICNVNHKPSNTKVDKRVEPKSCDKTHTCPPCPAPELLGGPSVFLFPPKPKDTLMISRTPEVTCVVVDVSHEDPEVKFNWYVDGVEVHNAKTKPREEQYNSTYRVVSVLTVLHQDWLNGKEYKCKVSNKALPAPIEKTISKAKGQPFRPEVHLLPPSREEMTKNQVSLTCLARGFYPKDIAVEWESNGQPENNYKTTPSRQEPSQGTTTFAVTSKLTVDKSRWQQGNVFSCSVMHEALHNHYTQKTISLSPG
chain: EPKSSDKTHTCPPCPAPELLGGPSVFLFPPKPKDTLMISRTPEVTCVVVDVSHEDPEVKFNWYVDGVEVHNAKTKPREEQYNSTYRVVSVLTVLHQDWLNGKEYKCKVSNKALPAPIEKTISKAKGQPREPQVYTLPPPSEELALNELVTLTCLVKGFYPSDIAVEWLQGSQELPREKYLTWAPVLDSDGSFFLYSILRVAAEDWKKGDTFSCSVMHEALHNHYTQKSLDRSPG
light: SYVLTQPPSVSVAPGQTARITCGGNNIGSESVHWYQQKPGQAPVLVVYDDSDRPSGIPERFSGSNSGNTATLTISRVEAGDEADYYCQVWDSTSDHRVFGGGTKLTVLGQPKAAPSVTLFPPSSEELQANKATLVCLISDFYPGAVTVAWKADSSPVKAGVETTTPSKQSNNKYAASSYLSLTPEQWKSHKSYSCQVTHEGSTVEKTVAPTECS
notes: also called #B10-SEED(AG)
Take B3: the binding result in assay [1] is listed as “binds”. In addition, binding in assay [2] was put at a Kd of 20 pM.

B4: monovalent SEEDbody #A08 (antibody)
heavy: EVQLQESGPGLVKPSGTLSLTCAVSGGSISSNNWWSWVRQPPGKGLEWIGEIYHSGSTSYNPSLKSRVTISVDKSKNQFSLKLSSVTAADTAVYYCARGTDWFDPWGQGTLVTVSSASTKGPSVFPLAPSSKSTSGGTAALGCLVKDYFPEPVTVSWNSGALTSGVHTFPAVLQSSGLYSLSSVVTVPSSSLGTQTYICNVNHKPSNTKVDKRVEPKSCDKTHTCPPCPAPELLGGPSVFLFPPKPKDTLMISRTPEVTCVVVDVSHEDPEVKFNWYVDGVEVHNAKTKPREEQYNSTYRVVSVLTVLHQDWLNGKEYKCKVSNKALPAPIEKTISKAKGQPFRPEVHLLPPSREEMTKNQVSLTCLARGFYPKDIAVEWESNGQPENNYKTTPSRQEPSQGTTTFAVTSKLTVDKSRWQQGNVFSCSVMHEALHNHYTQKTISLSPG
chain: EPKSSDKTHTCPPCPAPELLGGPSVFLFPPKPKDTLMISRTPEVTCVVVDVSHEDPEVKFNWYVDGVEVHNAKTKPREEQYNSTYRVVSVLTVLHQDWLNGKEYKCKVSNKALPAPIEKTISKAKGQPREPQVYTLPPPSEELALNELVTLTCLVKGFYPSDIAVEWLQGSQELPREKYLTWAPVLDSDGSFFLYSILRVAAEDWKKGDTFSCSVMHEALHNHYTQKSLDRSPG
light: SYVLTQPPSVSVAPGQTARITCGGNNIGSESVHWYQQKPGQAPVLVVYDDSDRPSGIPERFSGSNSGNTATLTISRVEAGDEADYYCQVWDSTSDHRVFGGGTKLTVLGQPKAAPSVTLFPPSSEELQANKATLVCLISDFYPGAVTVAWKADSSPVKAGVETTTPSKQSNNKYAASSYLSLTPEQWKSHKSYSCQVTHEGSTVEKTVAPTECS
notes: One-armed SEEDbody: full SEED(AG) heavy chain, partial hinge-CH2-CH3 SEED(GA) chain, lambda light chain; produced in CHO-LF cells (afucosylated); also called anti-FGFR1 SEEDbody; #A08 SEEDbody
On to B4, for which, in the assay with FGFR1 on NCI-H520 cells, the “IC50, pFGFR1 inhibition in NCI-H520 cells, FGF1, SEEDbody” value was found to be 7e-08 M; the “IC50, pFGFR1 inhibition in NCI-H520 cells, FGF2, SEEDbody” value worked out at 6e-09 M; the “IC50, pFGFR1 inhibition in NCI-H520 cells, non-stimulated, SEEDbody” value was determined as 2e-08 M. In addition, in assay [2], the dissociation constant (Kd) (in general, a measure of binding affinity in units of concentration) was found to be 80 pM.

B5: #C01 SEEDbody (monovalent) (antibody)
heavy: QVQLQESGPGLVKPSGTLSLTCAVSGGSISSNNWWSWVRQPPGKGLEWIGEIYHSGSTSYNPSLKSRVTISVDKSKNQFSLKLSSVTAADTAVYYCARATDWFDAWGQGTLVTVSSASTKGPSVFPLAPSSKSTSGGTAALGCLVKDYFPEPVTVSWNSGALTSGVHTFPAVLQSSGLYSLSSVVTVPSSSLGTQTYICNVNHKPSNTKVDKRVEPKSCDKTHTCPPCPAPELLGGPSVFLFPPKPKDTLMISRTPEVTCVVVDVSHEDPEVKFNWYVDGVEVHNAKTKPREEQYNSTYRVVSVLTVLHQDWLNGKEYKCKVSNKALPAPIEKTISKAKGQPFRPEVHLLPPSREEMTKNQVSLTCLARGFYPKDIAVEWESNGQPENNYKTTPSRQEPSQGTTTFAVTSKLTVDKSRWQQGNVFSCSVMHEALHNHYTQKTISLSPG
chain: EPKSSDKTHTCPPCPAPELLGGPSVFLFPPKPKDTLMISRTPEVTCVVVDVSHEDPEVKFNWYVDGVEVHNAKTKPREEQYNSTYRVVSVLTVLHQDWLNGKEYKCKVSNKALPAPIEKTISKAKGQPREPQVYTLPPPSEELALNELVTLTCLVKGFYPSDIAVEWLQGSQELPREKYLTWAPVLDSDGSFFLYSILRVAAEDWKKGDTFSCSVMHEALHNHYTQKSLDRSPG
light: SYVLTQPPSVSVAPGQTARITCGGNNIGSESVHWYQQKPGQAPVLVVYDDSDRPSGIPERFSGSNSGNTATLTISRVEAGDEADYYCQVWDSTSDHRVFGGGTKLTVLGQPKAAPSVTLFPPSSEELQANKATLVCLISDFYPGAVTVAWKADSSPVKAGVETTTPSKQSNNKYAASSYLSLTPEQWKSHKSYSCQVTHEGSTVEKTVAPTECS
notes: also called #C01-SEED(AG)
As to B5, in assay [1], the binding result is given as “binds”. The molecule further registered a dissociation constant Kd in assay [2] of 40 pM.
